These results are taken from US20130071921A1 (Pfizer, published 2013).

The target in assay [1] is T1, Recombinant human Dkk-1 (R&D Systems cat no. 1096-DK/CF), 10xHis tag at the C terminal (human, UniProt O94907 32-266).
T1 construct: the actual N-terminus of the purified protein is marked in bold italic after residue 30, but the mark is an image lost in the text; also called rhuDkk-1; hDkk-1
T1 sequence: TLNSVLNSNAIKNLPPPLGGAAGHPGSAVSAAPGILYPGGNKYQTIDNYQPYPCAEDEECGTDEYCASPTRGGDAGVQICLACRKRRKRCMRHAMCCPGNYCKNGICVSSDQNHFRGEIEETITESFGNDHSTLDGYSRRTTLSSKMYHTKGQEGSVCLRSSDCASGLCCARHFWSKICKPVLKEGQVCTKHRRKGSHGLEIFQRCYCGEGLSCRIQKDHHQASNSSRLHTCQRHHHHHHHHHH
Briefly: SPR screening 37C (BIAcore/ProteOn), Fab lysate over biotinylated human Dkk-1. The procedure: (§1) For screening assays to determine binding and dissociation rates of huMabJC18 variants to human Dkk1, either BIAcore or ProteOn XPR36 (BioRad, Inc.) systems were used. For the BIAcore assay, biotinylated-human Dkk1 was captured on SA (streptavidin) BIAcore chips according to the supplier's instructions. Biotinylated-human Dkk-1 protein was diluted into HBS-EP, and injected over the chip at a concentration of 5 μg/mL. Flow times across the individual chip channels were selected to achieve an antigen density of approximately 500-600 response units (RU). HBS-EP buffer was used as running buffer. Filtered recombinant E.coli cell lysates were injected at high temperature (37° C.) for 1 min at 30 ul/min, allowing a 1-5 min dissociation phase. Surfaces were regenerated with 8 mM NaOH+8% ethanol. A positive control Fab (clone 24) was injected twice at the start of the experiment, and again at the end of the assay to assess reproducibility.
(§2) For the ProteOn assay, biotinylated human Dkk-1 was injected for 1 min at serial fold dilutions empirically determined to yield different levels of immobilization (150-3000 RU) on five channels of a ProteOn NLC Neutravidin sensor chip. The sixth channel was left unmodified to serve as a reference surface. Recombinant Fabs in filtered E. coli lysates were injected at high temperature (37° C.) for 50 sec at 20 μl/min. Running buffer consisted of PBS+1 mg/ml BSA+0.005% Tween-20. The ProteOn is configured such that each injection flows over each of the five Dkk-1 channels as well as the reference channel, and six Fab samples can be injected simultaneously. Fab dissociation from the Dkk-1 surface was monitored for 20 min. The chip surface was regenerated with a 30-sec injection of 8% EtOH, 8 mM NaOH. Clone 24 Fab was used as control. Level of binding during association, and rate of dissociation for each clone was very consistent between different ligand channels.
A general note: SPR reads the build-up and loss of mass on a sensor chip optically.

Assay [2] addresses T1, Recombinant human Dkk-1 (R&D Systems …). Briefly: theoretical: koff / estimated kon 1e6 1/Ms (SPR screening 37C). As to the method:
as §1
as §2, with “channels. […]” for “channels.”

B1: L2.1B5 (Fab, V domains shown)
VH: EVQLVESGGGLVQPGGSLRLSCAASGFTFSSYAISWVRQAPGKGLEWVASVSGWGDTYYPDSVKGRFTISRDNAKNSLYLQMNSLRAEDTAVYYCATSLENYAFDYWGQGTTVTVSS
VL: EIVLTQSPATLSLSPGERATLSCRASESVDDFGISFMNWYQQKPGQAPRLLIYAASKQGSGIPARFSGSGSGTDFTLTISSLEPEDFAVYYCQQSKEVPPTFGGGTKVEIK
notes: tested as Fab (E. coli lysate, screening mode); human kappa CL and IgG2 CH1 not included here
In general, koff refers to the rate constant with which the complex falls apart. One may read the Kd as the equilibrium constant for the complex coming apart. With B1, the koff in assay [1] was 0.00442 s⁻¹. Moreover, the Kd in assay [2] is 4.42 nM.

B2: 24m6 (Fab, V domains shown)
VH: EVQLVESGGGLVQPGGSLRLSCAASGFTFSSYAISWVRQAPGKGLEWVASVSGGGRTYYPDSVKGRFTISRDNAKNSLYLQMNSLRAEDTAVYYCATSLENYAFDYWGQGTTVTVSS
VL: EIVLTQSPATLSLSPGERATLSCRASESVDDFGISFMNWYQQKPGQAPRLLIYAGSKQGSGIPARFSGSGSGTDFTLTISSLEPEDFAVYYCQQSKEVPPTFGGGTKVEIK
notes: as for B1
For the molecule B2, the koff in assay [1] stood at 0.00914 s⁻¹. Besides, in assay [2], the Kd is 9.14 nM.

B3: L2.4B10 (Fab, V domains shown)
VH: EVQLVESGGGLVQPGGSLRLSCAASGFTFSSYAISWVRQAPGKGLEWVASVSGWYDTYYPDSVKGRFTISRDNAKNSLYLQMNSLRAEDTAVYYCATSLENYAFDYWGQGTTVTVSS
VL: EIVLTQSPATLSLSPGERATLSCRASESVDDFGISFMNWYQQKPGQAPRLLIYAASKQGSGIPARFSGSGSGTDFTLTISSLEPEDFAVYYCQQSKEVPPTFGGGTKVEIK
notes: as for B1
Take B3: the koff in assay [1] amounted to 0.00345 s⁻¹. The Kd in assay [2] is 3.45 nM.

B4: 24 (Fab, V domains shown)
VH: EVQLVESGGGLVQPGGSLRLSCAASGFTFSSYAISWVRQAPGKGLEWVASVSGGGRTYYPDSVKGRFTISRDNAKNSLYLQMNSLRAEDTAVYYCATSLENYAFDYWGQGTTVTVSS
VL: EIVLTQSPATLSLSPGERATLSCRASESVDDFGISFMNWYQQKPGQAPRLLIYAASKQGSGIPARFSGSGSGTDFTLTISSLEPEDFAVYYCQQSKEVPPTFGGGTKVEIK
notes: positive control Fab of the screening assays; human kappa CL and IgG2 CH1 not included here; printed changes identical to L2.1E5; also called clone 24; Clone 24 Fab
Take B4: the koff in assay [1] was 0.0114 s⁻¹. In addition, the Kd in assay [2] is 11.4 nM.

B5: 1F10.33L (Fab, V domains shown)
VH: EVQLVESGGGLVQPGGSLRLSCAASGFTFSSYAISWVRQAPGKGLEWVASVSGGFQTYYPDSVKGRFTISRDNAKNSLYLQMNSLRAEDTAVYYCATSLDNYAFDYWGQGTTVTVSS
VL: EIVLTQSPATLSLSPGERATLSCRASESVDDFGISFINWYQQKPGQAPRLLIYAGSKQGSGIPARFSGSGSGTDFTLTISSLEPEDFAVYYCQQLKEVPPTFGGGTKVEIK
notes: human kappa CL and IgG2 CH1 not included here
B5: the koff in assay [1] came to 8.99e-05 s⁻¹. Besides, the Kd in assay [2] is 0.09 nM.

B6: 24m4 (Fab, V domains shown)
VH: EVQLVESGGGLVQPGGSLRLSCAASGFTFSSYAISWVRQAPGKGLEWVASVSGGGRTYYPDSVKGRFTISRDNAKNSLYLQMNSLRAEDTAVYYCATSLENYAFDYWGQGTTVTVSS
VL: EIVLTQSPATLSLSPGERATLSCRASESVDDFGISFLNWYQQKPGQAPRLLIYAASKQGSGIPARFSGSGSGTDFTLTISSLEPEDFAVYYCQQSKEVPPTFGGGTKVEIK
notes: as for B1
Turning to B6, the koff in assay [1] was found to be 0.0118 s⁻¹. Moreover, the Kd in assay [2] was 11.8 nM.

B7: L2.1B11 (Fab, V domains shown)
VH: EVQLVESGGGLVQPGGSLRLSCAASGFTFSSYAISWVRQAPGKGLEWVASVSGWFDTYYPDSVKGRFTISRDNAKNSLYLQMNSLRAEDTAVYYCATSLRNYAFDYWGQGTTVTVSS
VL: EIVLTQSPATLSLSPGERATLSCRASESVDDFGISFMNWYQQKPGQAPRLLIYAASKQGSGIPARFSGSGSGTDFTLTISSLEPEDFAVYYCQQSKEVPPTFGGGTKVEIK
notes: as for B1
Regarding B7, the koff in assay [1] turned out to be 0.00207 s⁻¹. Besides, the Kd in assay [2] is 2.07 nM.

B8: L2.1G8 (Fab, V domains shown)
VH: EVQLVESGGGLVQPGGSLRLSCAASGFTFSSYAISWVRQAPGKGLEWVASVSGWFDTYYPDSVKGRFTISRDNAKNSLYLQMNSLRAEDTAVYYCATSLENYAFDYWGQGTTVTVSS
VL: EIVLTQSPATLSLSPGERATLSCRASESVDDFGISFMNWYQQKPGQAPRLLIYAASKQGSGIPARFSGSGSGTDFTLTISSLEPEDFAVYYCQQSKEVPPTFGGGTKVEIK
notes: as for B1
B8: the koff in assay [1] amounted to 0.00255 s⁻¹. The Kd in assay [2] was 2.55 nM.

B9: 2H10.33L (Fab, V domains shown)
VH: EVQLVESGGGLVQPGGSLRLSCAASGFTFSSYAISWVRQAPGKGLEWVASVSGWFDTYYPDSVKGRFTISRDNAKNSLYLQMNSLRAEDTAVYYCATSLQNYAFDYWGQGTTVTVSS
VL: EIVLTQSPATLSLSPGERATLSCRASESVDDFGISFINWYQQKPGQAPRLLIYAGSKQGSGIPARFSGSGSGTDFTLTISSLEPEDFAVYYCQQLKEVPPTFGGGTKVEIK
notes: as for B1
On to B9, for which the koff in assay [1] is 0.000148 s⁻¹. For the same molecule, the Kd in assay [2] was 0.148 nM.

B10: L2.1F11 (Fab, V domains shown)
VH: EVQLVESGGGLVQPGGSLRLSCAASGFTFSSYAISWVRQAPGKGLEWVASVSGWLDTYYPDSVKGRFTISRDNAKNSLYLQMNSLRAEDTAVYYCATSLQNYAFDYWGQGTTVTVSS
VL: EIVLTQSPATLSLSPGERATLSCRASESVDDFGISFMNWYQQKPGQAPRLLIYAASKQGSGIPARFSGSGSGTDFTLTISSLEPEDFAVYYCQQSKEVPPTFGGGTKVEIK
notes: as for B1
In the case of B10, in assay [1], the koff worked out at 0.00212 s⁻¹. In assay [2], the Kd is 2.12 nM.

B11: L2.1D12 (Fab, V domains shown)
VH: EVQLVESGGGLVQPGGSLRLSCAASGFTFSSYAISWVRQAPGKGLEWVASVSGWFDTYYPDSVKGRFTISRDNAKNSLYLQMNSLRAEDTAVYYCATSLQNYAFDYWGQGTTVTVSS
VL: EIVLTQSPATLSLSPGERATLSCRASESVDDFGISFMNWYQQKPGQAPRLLIYAASKQGSGIPARFSGSGSGTDFTLTISSLEPEDFAVYYCQQSKEVPPTFGGGTKVEIK
notes: as for B1
In the case of B11, the koff in assay [1] was 0.00278 s⁻¹. For the same molecule, in assay [2], the Kd was 2.78 nM.

B12: 2G9.33L (Fab, V domains shown)
VH: EVQLVESGGGLVQPGGSLRLSCAASGFTFSSYAISWVRQAPGKGLEWVASVSGWGDTYYPDSVKGRFTISRDNAKNSLYLQMNSLRAEDTAVYYCATSLRNYAFDYWGQGTTVTVSS
VL: EIVLTQSPATLSLSPGERATLSCRASESVDDFGISFINWYQQKPGQAPRLLIYAGSKQGSGIPARFSGSGSGTDFTLTISSLEPEDFAVYYCQQLKEVPPTFGGGTKVEIK
notes: as for B1
As to B12, the koff in assay [1] amounted to 0.000283 s⁻¹. The dissociation constant (Kd) in assay [2] is 0.283 nM.

B13: L2.1E5 (Fab, V domains shown)
VH: EVQLVESGGGLVQPGGSLRLSCAASGFTFSSYAISWVRQAPGKGLEWVASVSGGGRTYYPDSVKGRFTISRDNAKNSLYLQMNSLRAEDTAVYYCATSLENYAFDYWGQGTTVTVSS
VL: EIVLTQSPATLSLSPGERATLSCRASESVDDFGISFMNWYQQKPGQAPRLLIYAASKQGSGIPARFSGSGSGTDFTLTISSLEPEDFAVYYCQQSKEVPPTFGGGTKVEIK
notes: tested as Fab (E. coli lysate, screening mode); human kappa CL and IgG2 CH1 not included here; printed changes identical to clone 24
As for B13, the koff in assay [1] was determined as 0.0057 s⁻¹. Besides, in assay [2], the Kd is 5.7 nM.

B14: L2.1G4 (Fab, V domains shown)
VH: EVQLVESGGGLVQPGGSLRLSCAASGFTFSSYAISWVRQAPGKGLEWVASVSGWFDTYYPDSVKGRFTISRDNAKNSLYLQMNSLRAEDTAVYYCATSLENYAFDKWGQGTTVTVSS
VL: EIVLTQSPATLSLSPGERATLSCRASESVDDFGISFMNWYQQKPGQAPRLLIYAASKQGSGIPARFSGSGSGTDFTLTISSLEPEDFAVYYCQQSKEVPPTFGGGTKVEIK
notes: as for B1
Consider B14, for which, in assay [1], the koff is 0.00312 s⁻¹. In addition, the Kd in assay [2] is 3.12 nM.

B15: 24m5 (Fab, V domains shown)
VH: EVQLVESGGGLVQPGGSLRLSCAASGFTFSSYAISWVRQAPGKGLEWVASVSGGGRTYYPDSVKGRFTISRDNAKNSLYLQMNSLRAEDTAVYYCATSLENYAFDYWGQGTTVTVSS
VL: EIVLTQSPATLSLSPGERATLSCRASESVDDFGISFMNWYQQKPGQAPRLLIYAGTKQGSGIPARFSGSGSGTDFTLTISSLEPEDFAVYYCQQSKEVPPTFGGGTKVEIK
notes: as for B1
Turning to B15, the koff in assay [1] amounted to 0.00874 s⁻¹. Besides, the Kd in assay [2] was 8.74 nM.
